Experimental data taken from patent US8106020B2, “Calcium receptor activator” (Ajinomoto Co., Inc., priority 2005, dated 2012).
Starred links: 1 amine or outer side, 2 acyl side, 3 side chain; linkers in the order of their positions; H or OH if unused. Non-standard residues stand in square brackets, D forms with d. No end group written: not given here. Cys(S-allyl) = S-allylcysteine, C=CCSC[C@H](N[*:1])C(=O)[*:2]; Cys(S-Me) = S-methylcysteine, CSC[C@H](N[*:1])C(=O)[*:2]; γGlu = O=C(O)[C@H](CCC(=O)[*:2])N[*:1]; Tau = Taurine, O=S(=O)(CCN[*:1])[*:2]; Tle = CC(C)(C)[C@H](N)C(=O)O; Orn = NCCC[C@H](N)C(=O)O; Abu = CC[C@H](N)C(=O)O

Tested on: Parathyroid hormone (PTH)
Test: Pharmacological evaluation in rats: serum PTH after intravenous injection
Assay type: in vivo, rat
Conditions: 15 minutes after the administration; male Sprague-Dawley rats, 100 mg/ml in saline, 0.1 ml/100 g body weight, tail vein
From the text: The pharmacological effects of the peptides were confirmed by animal study. Parathyroid hormone (PTH) is one of the major proteins which relate to calcium homeostasis. Increase in PTH is directly responsible for hyperparathyroidism and hypoparathyroidism. It is known that PTH is secreted from the parathyroid gland, and its secretion is inhibited when the calcium receptor is activated. Male, 10 weeks old, Sprague-Dawley strain rats were used. “Rat Intact PTH ELISA KIT” (Immutopics) was used for measuring PTH according to the manufacturer's recommended protocol. 100 mg/ml of γ-Glu-Val-Gly was dissolved in physiological saline, and 0.1 ml/100 g body weight for each was injected through the tail vein. Blood was collected from the vein under the right clavicle, and blood serum was obtained by centrifugation. Each group consists of 3 rats, and PTH variation is shown below as average value±standard error. The result for the peptide-administered group was: 148±72.5 pg/ml before the administration and 9.44±2.94 pg/ml 15 minutes after the administration; meanwhile, the result for the control group (physiological saline administered group) was: 89.4±49.5 pg/ml before the administration and 41.1±11.6 pg/ml 15 minutes after the administration. As a result, PTH levels decreased as a result of the administration of the peptides.

Molecule	PTH in blood serum, average value±standard error
γ-Glu-Val-Gly ([γGlu]-Val-Gly)	9.44 ± 2.94 pg/mL

Same assay, conditions: before the administration; male Sprague-Dawley rats, 100 mg/ml in saline, 0.1 ml/100 g body weight, tail vein

Molecule	PTH in blood serum, average value±standard error
γ-Glu-Val-Gly ([γGlu]-Val-Gly)	148 ± 72.5 pg/mL

Target: T1, human calcium receptor (Homo sapiens, UniProt P41180)
T1 construct: expressed in transfected cells; host or cells: Xenopus laevis oocytes microinjected with cRNA; gene amplified by PCR from human kidney cDNA (Clontech) and cloned in pBR322
T1 sequence (P41180 20-1078): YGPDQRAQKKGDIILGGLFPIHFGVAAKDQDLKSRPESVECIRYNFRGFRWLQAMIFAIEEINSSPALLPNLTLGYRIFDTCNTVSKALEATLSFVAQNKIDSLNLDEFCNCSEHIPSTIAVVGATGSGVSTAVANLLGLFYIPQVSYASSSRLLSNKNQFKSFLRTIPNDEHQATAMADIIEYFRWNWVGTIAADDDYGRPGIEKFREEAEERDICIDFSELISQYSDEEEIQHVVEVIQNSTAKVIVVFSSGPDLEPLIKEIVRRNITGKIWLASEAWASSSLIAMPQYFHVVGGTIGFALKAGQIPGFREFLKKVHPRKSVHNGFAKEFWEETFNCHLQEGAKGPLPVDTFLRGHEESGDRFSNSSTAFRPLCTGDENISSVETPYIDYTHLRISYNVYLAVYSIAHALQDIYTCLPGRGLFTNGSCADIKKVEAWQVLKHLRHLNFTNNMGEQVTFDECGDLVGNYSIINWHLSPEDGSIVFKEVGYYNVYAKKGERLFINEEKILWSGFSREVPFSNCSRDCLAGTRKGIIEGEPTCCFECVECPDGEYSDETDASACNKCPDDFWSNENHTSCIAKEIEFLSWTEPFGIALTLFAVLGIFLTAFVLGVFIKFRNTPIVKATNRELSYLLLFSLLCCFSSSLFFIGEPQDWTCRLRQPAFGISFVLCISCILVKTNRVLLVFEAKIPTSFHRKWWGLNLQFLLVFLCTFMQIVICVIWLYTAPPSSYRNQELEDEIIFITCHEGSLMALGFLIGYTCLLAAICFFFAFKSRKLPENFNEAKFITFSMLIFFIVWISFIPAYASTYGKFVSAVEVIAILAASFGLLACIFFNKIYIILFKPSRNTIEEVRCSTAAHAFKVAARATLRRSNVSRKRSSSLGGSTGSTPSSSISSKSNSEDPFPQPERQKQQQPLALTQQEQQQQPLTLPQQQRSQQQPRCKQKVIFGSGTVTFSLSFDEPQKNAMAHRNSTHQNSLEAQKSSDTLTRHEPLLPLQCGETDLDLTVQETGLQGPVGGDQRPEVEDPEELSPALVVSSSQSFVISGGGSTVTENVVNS
Test: Calcium receptor activation activity: Ca ion concentration-dependent Cl ionic current in Xenopus laevis oocyte expression system
Assay type: cell-based
Conditions: Ca ion concentration-dependent Cl response current; peptides added at 1000 to 0.1 μM; oocytes voltage-clamped at −70 mV
Protocol: To evaluate calcium receptor activation activity, a Ca ion concentration-dependent Cl ionic current measuring method using a Xenopus laevis oocyte expression system was used. If each activator is added to Xenopus laevis oocytes expressing the calcium receptor, intracellular Ca ions increase. Then, the Ca ion concentration-dependent Cl channel opens, and the intracellular current value changes as an ionic current. By measuring the change in this intracellular current value, the presence or absence of calcium receptor activation activity can be determined.
Specifically, the abdomen of Xenopus laevis was opened, and an egg batch was taken out and treated with a 1% collagenase solution at 20° C. for 2 hours to obtain individual oocytes. Into the oocytes, 50 nl of 1 μg/μl receptor cRNA or 50 nl of sterilized water per oocyte was introduced by using a micro glass capillary, and the oocytes were cultured at 18° C. for 2 or 3 days. For the culture, a solution obtained by adding 2 mM pyruvic acid, 10 U/ml of penicillin, and 10 μg/ml of streptomycin to the solution in Example 2 was used. After the culture, a test solution was added to the oocytes containing either the cRNA or sterilized water. Electrophysiological measurement was performed by using an amplifier, Geneclamp500 (Axon), and recording software, AxoScope 9.0 (Axon). The oocytes were voltage-clamped at −70 mV by the double electrode voltage clamp method, and the intracellular current was measured via the Ca ion concentration-dependent Cl ion channel. The maximum value of the intracellular current was considered as the response current value.
Calcium receptor activation activity of L-amino acids was evaluated by using the method described in Example 6. That is, oocytes containing either cRNA of the calcium receptor or sterilized water were prepared, and voltage-clamped at −70 mV by the double electrode voltage clamp method. To the voltage-clamped oocytes, alanine (10 mM), arginine (10 mM), asparagine (10 mM), aspartic acid (10 mM), cysteine (10 mM), glutamine (10 mM), glutamic acid (10 mM), glycine (10 mM), histidine (10 mM), isoleucine (10 mM), leucine (10 mM), lysine (10 mM), methionine (10 mM), phenylalanine (10 mM), proline (10 mM), serine (10 mM), threonine (10 mM), tryptophan (10 mM), tyrosine (10 mM), valine (10 mM), ornithine (10 mM), taurine (10 mM), or hydroxyproline (10 mM) was added, and Ca ion concentration-dependent Cl response current was measured. […] As for the aforementioned amino acids, the activation activity was reported in Proc. Natl. Acad. Sci. USA, 2000 Apr. 25, 97(9):4814-9.
Calcium receptor activation activity of D-cysteine was evaluated by using the method described in Example 6. That is, oocytes containing either cRNA of the calcium receptor or sterilized water were prepared, and voltage-clamped at −70 mV by the double electrode voltage clamp method. To the voltage-clamped oocytes, D-cysteine (10 mM), L-cysteine (10 mM), D-tryptophan (10 mM), or L-tryptophan (10 mM) was added, and Ca ion concentration-dependent Cl response current was measured.
Calcium receptor activation activity of peptides was evaluated by using the method described in Example 6. That is, oocytes containing either cRNA of the calcium receptor or sterilized water were prepared, and voltage-clamped at −70 mV by the double electrode voltage clamp method.
Calcium receptor activation activity of peptides was evaluated in the same manner as that of Example 10. Each of the peptides shown in Table 2 was added to voltage-clamped oocytes at 1000 μM, 300 μM, 100 μM, 30 μM, 10 μM, 3 μM, 1 μM, 0.3 μM, and 0.1 μM, and Ca ion concentration-dependent Cl response current was measured.

Molecule	Activity (lowest concentration for which current was detected)
γ-Glu-Abu-Gly ([γGlu]-[Abu]-Gly)	3 µM
γ-Glu-Cys(S-Me)-Gly ([γGlu]-[Cys(S-Me)]-Gly)	3 µM
γ-Glu-Cys(S-allyl)-Gly ([γGlu]-[Cys(S-allyl)]-Gly)	100 µM
γ-Glu-Gly-Gly ([γGlu]-Gly-Gly)	30 µM
γ-Glu-Ser-Gly ([γGlu]-Ser-Gly)	30 µM
γ-Glu-Tau ([γGlu]-[Tau])	300 µM
γ-Glu-Val-Arg ([γGlu]-Val-Arg)	1000 µM
γ-Glu-Val-Asn ([γGlu]-Val-Asn)	30 µM
γ-Glu-Val-Asp	1000 µM
γ-Glu-Val-Cys ([γGlu]-Val-Cys)	10 µM
γ-Glu-Val-Gln ([γGlu]-Val-Gln)	10 µM
γ-Glu-Val-Glu ([γGlu]-Val-Glu)	1000 µM
γ-Glu-Val-Gly ([γGlu]-Val-Gly)	0.1 µM
γ-Glu-Val-His ([γGlu]-Val-His)	100 µM
γ-Glu-Val-Lys ([γGlu]-Val-Lys)	1000 µM
γ-Glu-Val-Met ([γGlu]-Val-Met)	1000 µM
γ-Glu-Val-Orn ([γGlu]-Val-[Orn])	100 µM
γ-Glu-Val-Phe ([γGlu]-Val-Phe)	30 µM
γ-Glu-Val-Pro ([γGlu]-Val-Pro)	30 µM
γ-Glu-Val-Ser ([γGlu]-Val-Ser)	30 µM
γ-Glu-Val-Thr ([γGlu]-Val-Thr)	1000 µM
γ-Glu-Val-Val ([γGlu]-Val-Val)	1000 µM
γ-Glu-t-Leu ([γGlu]-[Tle])	100 µM
γ-Glu-γ-Glu-Val ([γGlu]-[γGlu]-Val)	1000 µM

Same assay, conditions: D-amino acid 10 mM; FIG. 3

Molecule	calcium receptor activation activity (Cl response current)
N[C@H](CS)C(=O)O [D-cysteine]	definitive calcium receptor activation activity

Same assay, conditions: L-amino acid 10 mM; FIG. 2

Molecule	calcium receptor activation activity (Cl response current)
N[C@@H](CS)C(=O)O [cysteine, reference compound]	definite calcium receptor activation activity
N[C@@H](Cc1c[nH]cn1)C(=O)O [histidine, reference compound]	definite calcium receptor activation activity
N[C@@H](Cc1ccccc1)C(=O)O [phenylalanine, reference compound]	definite calcium receptor activation activity
N[C@@H](Cc1c[nH]c2ccccc12)C(=O)O [tryptophan, reference compound]	definite calcium receptor activation activity
N[C@@H](Cc1ccc(O)cc1)C(=O)O [tyrosine, reference compound]	definite calcium receptor activation activity

Same assay, conditions: peptide 50 μM; FIG. 4

Molecule	calcium receptor activation activity (Cl response current)
N[C@@H](CCC(=O)N[C@@H](CSN=O)C(=O)NCC(=O)O)C(=O)O [γ-Glu-Cys(SNO)-Gly]	definitive calcium receptor activation activity
N[C@@H](CCC(=O)N[C@@H](CS)C(=O)NCC(=O)O)C(=O)O [γ-Glu-Cys-Gly]	definitive calcium receptor activation activity

Same assay, conditions: peptide 500 μM; FIG. 4

Molecule	calcium receptor activation activity (Cl response current)
γ-Glu-Orn ([γGlu]-[Orn])	definitive calcium receptor activation activity
